In patent US20120219562A1 (AbbVie / Abbott, published 2012):
Where a chain is given by its changes, count along the chain named.

T1: human interleukin 12 (human, UniProt P29459 23-219; P29460 23-328)
T1 construct: heterodimer of p35 and p40 linked by a disulfide bridge; also called hIL-12; IL-12
T1 sequence (looked up) 1: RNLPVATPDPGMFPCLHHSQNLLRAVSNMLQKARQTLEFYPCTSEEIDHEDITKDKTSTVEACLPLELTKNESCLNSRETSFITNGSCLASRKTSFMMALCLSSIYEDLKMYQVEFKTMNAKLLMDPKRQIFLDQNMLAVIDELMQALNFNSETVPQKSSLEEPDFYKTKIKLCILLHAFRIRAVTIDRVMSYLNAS
T1 sequence (looked up) 2: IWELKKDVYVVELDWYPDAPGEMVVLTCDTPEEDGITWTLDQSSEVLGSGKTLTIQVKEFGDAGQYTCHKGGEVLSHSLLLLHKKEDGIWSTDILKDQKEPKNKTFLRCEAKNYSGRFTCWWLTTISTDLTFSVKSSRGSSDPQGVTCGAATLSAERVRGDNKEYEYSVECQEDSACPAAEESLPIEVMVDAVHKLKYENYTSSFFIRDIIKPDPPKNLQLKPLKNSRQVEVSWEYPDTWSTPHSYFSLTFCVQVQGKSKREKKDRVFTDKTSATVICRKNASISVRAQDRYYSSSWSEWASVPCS

B1: 170-21 (antibody, V domains shown)
VH: QVQLVQSGGGVVQPGRSLRLSCAASGFTFSSYGMHWVRQAPGKGLEWVAFIRYDGSNKYYADSVKGRFTISRDNSKNTLYLQMKSLRAEDTAVYYCTTHGSQDNWGQGTMVTVSS
VL: SYVLTQPPSVSGTPGQRVTISCSGGRSNIGSNTVKWYQQLPGTAPKLLIYGNDQRPSGVPDRFSGSKSGTSASLAITGVQAEDEADYYCQSYDRGFTGPRLFGTGTKVTVL
B2: 73-B2 (antibody, V domains shown)
VH: B1 VH with H99S, Q102Y, N104Y
VL: SYVLTQPPSVSGTPGQRVTISCSGGRSNIGSNTVKWYQQLPGTAPKLLIYGNDQRPSGVPDRFSGSKSGTSASLAITGVQAEDEADYYCHSSESGFTGSRVFGTGTKVTVLG
B3: 73-C2 (antibody, V domains shown)
VH: B1 VH with H99S, Q102Y, N104Y
VL: B2 VL with H90Q, S92Y, E93D, G95E
B4: 73-C6 (antibody, V domains shown)
VH: B1 VH with H99S, Q102Y, N104Y
VL: B2 VL with H90Q, S92Y, E93D, S94T
B5: 73-D1 (antibody, V domains shown)
VH: B1 VH with H99S, Q102Y, N104Y
VL: B2 VL with S92Y, E93D
B6: 73-D4 (antibody, V domains shown)
VH: B1 VH with H99S, Q102Y, N104Y
VL: B2 VL with S92Y, E93D, S94T, G95K
B7: 73-D5 (antibody, V domains shown)
VH: B1 VH with H99S, Q102Y, N104Y
VL: B2 VL with E93D
B8: 73-E3 (antibody, V domains shown)
VH: B1 VH with H99S, Q102Y, N104Y
VL: B2 VL with H90Q, S92Y, E93D, G95D
B9: 73-E6 (antibody, V domains shown)
VH: B1 VH with H99S, Q102Y, N104Y
VL: B2 VL with S92Y
B10: 73-F3 (antibody, V domains shown)
VH: B1 VH with H99S, Q102Y, N104Y
VL: B2 VL with H90Q, S92Y, E93D, S94A, G95P, F96W, T97S
B11: 73-F5 (antibody, V domains shown)
VH: B1 VH with H99S, Q102Y, N104Y
VL: B2 VL with H90Q, S92Y, E93D, G95D, R100K
B12: 73-G2 (antibody, V domains shown)
VH: B1 VH with H99S, Q102Y, N104Y
VL: B2 VL with S91T, S92N, E93D
B13: 73-G3 (antibody, V domains shown)
VH: B1 VH with H99S, Q102Y, N104Y
VL: B2 VL with S92Y, E93D, S94T, G95R
B14: 73-G4 (antibody, V domains shown)
VH: B1 VH with H99S, Q102Y, N104Y
VL: B2 VL with H90Q, S92Y, E93D, S94M, G95R
B15: 73-G5 (antibody, V domains shown)
VH: B1 VH with H99S, Q102Y, N104Y
VL: B2 VL with E93D, G95D, F96S
B16: 73-G6 (antibody, V domains shown)
VH: B1 VH with H99S, Q102Y, N104Y
VL: B2 VL with H90Q, S92Y, E93N, S94T, G95D
B17: 73-H2 (antibody, V domains shown)
VH: B1 VH with H99S, Q102Y, N104Y
VL: B2 VL with H90Q, S92Y, E93D
B18: 73-F6 (antibody, V domains shown)
VH: B1 VH with H99S, Q102Y, N104Y
VL: B2 VL with S92Y, E93D, S94M
B19: 73-H3 (antibody, V domains shown)
VH: B1 VH with H99S, Q102Y, N104Y
VL: B2 VL with S92Y, E93D, S94N
B20: 73-C5 (antibody, V domains shown)
VH: B1 VH with H99S, Q102Y, N104Y
VL: B2 VL with S92H, E93D, S94R, G95D
B21: M2 A2 (antibody, V domains shown)
VH: B1 VH with T97K, Q102H
VL: B2 VL with H90Q, S92Y, E93D, S94R, F96I, T97H
B22: M2 A5 (antibody, V domains shown)
VH: B1 VH with T97K, Q102H
VL: B2 VL with H90Q, S92Y, E93D, S94I, F96S
B23: M2 B1 (antibody, V domains shown)
VH: B1 VH with T97K, Q102H
VL: B2 VL with H90Q, S92Y, E93D, F96L
B24: M2 B3 (antibody, V domains shown)
VH: B1 VH with T97K, Q102H
VL: B2 VL with H90Q, S92Y, E93D, S94I, F96M
B25: M2 B5 (antibody, V domains shown)
VH: B1 VH with T97K, Q102H
VL: B2 VL with H90Q, S92Y, E93D, F96V
B26: M2 B6 (antibody, V domains shown)
VH: B1 VH with T97K, Q102H
VL: B1 VL with F96L, G98A, P99S, L101V
B27: M2 C5 (antibody, V domains shown)
VH: B1 VH with T97K, Q102H
VL: B2 VL with H90Q, S92Y, E93D, S94T, G95A, F96L
B28: M2 D1 (antibody, V domains shown)
VH: B1 VH with T97K, Q102H
VL: B2 VL with H90Q, S92Y, E93D, S94I, G95R
B29: M2 D2 (antibody, V domains shown)
VH: B1 VH with T97K, Q102H
VL: B2 VL with H90Q, S92Y, E93D, S94I, G95R, F96S
B30: M2 D3 (antibody, V domains shown)
VH: B1 VH with T97K, Q102H
VL: B2 VL with H90Q, S92Y, E93D, S94N, G95R, F96L
B31: M2 D4 (antibody, V domains shown)
VH: B1 VH with T97K, Q102H
VL: B2 VL with H90Q, S92Y, S94T, G95S
B32: M2 D5 (antibody, V domains shown)
VH: B1 VH with T97K, Q102H
VL: B2 VL with H90Q, S92Y, E93D, G95S, F96S
B33: M2 D6 (antibody, V domains shown)
VH: B1 VH with T97K, Q102H
VL: B2 VL with H90Q, S92Y, E93D, G98A
B34: M2 E1 (antibody, V domains shown)
VH: B1 VH with T97K, Q102H
VL: B2 VL with H90Q, S91T, S92Y, E93D, S94K, R100S
B35: M2 E2 (antibody, V domains shown)
VH: B1 VH with T97K, Q102H
VL: B1 VL with R94N, P99S, L101V
B36: M2 E6 (antibody, V domains shown)
VH: B1 VH with T97K, Q102H
VL: B2 VL with H90Q, S92Y, E93D, S94T, G98K
B37: M2 F1 (antibody, V domains shown)
VH: B1 VH with T97K, Q102H
VL: B2 VL with H90Q, S92Y, E93D, G95D, F96V
B38: M2 H5 (antibody, V domains shown)
VH: B1 VH with T97K, Q102H
VL: B2 VL with H90Q, S92Y, E93D, S94A
B39: C2 (antibody, V domains shown)
VH: B1 VH with T97K, Q102H
VL: B1 VL with F96L, T97N, G98P, P99S, R100A, L101T
B40: A8 (antibody, V domains shown)
VH: B1 VH with T97K, Q102H
VL: B1 VL with F96K, T97S, G98N, P99K, R100M

Biological target: T1, human interleukin 12
Experiment: SPR (BIAcore)

Binder | koff
B1 | 0.00389 s⁻¹
B2 | 0.00207 s⁻¹
B3 | 0.00379 s⁻¹
B4 | 0.00396 s⁻¹
B5 | 0.00399 s⁻¹
B6 | 0.00536 s⁻¹
B7 | 0.00357 s⁻¹
B8 | 0.00498 s⁻¹
B9 | 0.00417 s⁻¹
B10 | 0.00708 s⁻¹
B11 | 0.00374 s⁻¹
B12 | 0.00398 s⁻¹
B13 | 0.0035 s⁻¹
B14 | 0.00658 s⁻¹
B15 | 0.00601 s⁻¹
B16 | 0.0063 s⁻¹
B17 | 0.00593 s⁻¹
B18 | 0.00587 s⁻¹
B19 | 0.00685 s⁻¹
B20 | 0.00484 s⁻¹

Binder | koff
B21 | 0.04 s⁻¹
B22 | 0.0401 s⁻¹
B23 | 0.00797 s⁻¹
B24 | 0.046 s⁻¹
B25 | 0.00838 s⁻¹
B26 | 0.0281 s⁻¹
B27 | 0.0471 s⁻¹
B28 | 0.0371 s⁻¹
B29 | 0.0385 s⁻¹
B30 | 0.0333 s⁻¹
B31 | 0.0581 s⁻¹
B32 | 0.0518 s⁻¹
B33 | 0.0501 s⁻¹
B34 | 0.0532 s⁻¹
B35 | 0.0477 s⁻¹
B36 | 0.00977 s⁻¹
B37 | 0.0616 s⁻¹
B38 | 0.0099 s⁻¹
B39 | 0.00223 s⁻¹
B40 | 0.00237 s⁻¹
